Reference: IntAct's records for PubMed 20818336

B1: Importin subunit alpha-3 (Homo sapiens), O00629 (parent)
chain: MADNEKLDNQRLKNFKNKGRDLETMRRQRNEVVVELRKNKRDEHLLKRRNVPHEDICEDSDIDGDYRVQNTSLEAIVQNASSDNQGIQLSAVQAARKLLSSDRNPPIDDLIKSGILPILVHCLERDDNPSLQFEAAWALTNIASGTSEQTQAVVQSNAVPLFLRLLHSPHQNVCEQAVWALGNIIGDGPQCRDYVISLGVVKPLLSFISPSIPITFLRNVTWVMVNLCRHKDPPPPMETIQEILPALCVLIHHTDVNILVDTVWALSYLTDAGNEQIQMVIDSGIVPHLVPLLSHQEVKVQTAALRAVGNIVTGTDEQTQVVLNCDALSHFPALLTHPKEKINKEAVWFLSNITAGNQQQVQAVIDANLVPMIIHLLDKGDFGTQKEAAWAISNLTISGRKDQVAYLIQQNVIPPFCNLLTVKDAQVVQVVLDGLSNILKMAEDEAETIGNLIEECGGLEKIEQLQNHENEDIYKLAYEIIDQFFSSDDIDEDPSLVPEAIQGGTFGFNSSANVPTEGFQF
partner: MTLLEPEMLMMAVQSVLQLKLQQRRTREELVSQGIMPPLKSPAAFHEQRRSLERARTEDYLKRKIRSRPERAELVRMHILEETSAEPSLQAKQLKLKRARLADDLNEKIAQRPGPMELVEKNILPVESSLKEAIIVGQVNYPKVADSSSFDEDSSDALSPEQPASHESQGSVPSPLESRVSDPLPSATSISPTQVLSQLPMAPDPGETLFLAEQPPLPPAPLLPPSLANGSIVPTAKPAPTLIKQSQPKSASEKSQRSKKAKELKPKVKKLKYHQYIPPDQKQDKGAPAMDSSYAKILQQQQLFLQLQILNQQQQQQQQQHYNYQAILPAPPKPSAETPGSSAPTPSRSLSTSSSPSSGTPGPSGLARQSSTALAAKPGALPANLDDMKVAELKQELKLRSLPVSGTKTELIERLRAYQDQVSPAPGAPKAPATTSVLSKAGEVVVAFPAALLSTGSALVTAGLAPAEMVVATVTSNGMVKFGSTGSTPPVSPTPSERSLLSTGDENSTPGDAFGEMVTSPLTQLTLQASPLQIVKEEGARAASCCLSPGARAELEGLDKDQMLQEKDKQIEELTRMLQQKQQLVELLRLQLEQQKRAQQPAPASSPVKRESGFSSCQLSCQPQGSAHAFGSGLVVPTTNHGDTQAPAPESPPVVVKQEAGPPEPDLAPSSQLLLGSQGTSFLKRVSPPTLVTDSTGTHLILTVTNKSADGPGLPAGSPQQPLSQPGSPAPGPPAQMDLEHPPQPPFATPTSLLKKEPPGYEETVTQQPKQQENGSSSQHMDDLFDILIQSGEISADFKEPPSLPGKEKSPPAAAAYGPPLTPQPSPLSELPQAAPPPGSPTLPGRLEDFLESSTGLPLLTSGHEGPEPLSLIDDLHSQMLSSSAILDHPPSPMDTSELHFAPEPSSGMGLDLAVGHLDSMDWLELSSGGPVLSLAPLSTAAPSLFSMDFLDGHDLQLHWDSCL
B2: Myocardin-related transcription factor A (Mus musculus), Q8K4J6 (parent)
chain: B1 partner

Variants of: B1
Conditions: with mrtfa_mouse Mrtfa

Q: Which “effect of a mutation on the interaction” value does the source give for W390A;N394A here?
A: Its value is “decreasing interaction strength”.

Q: With W179A;N183A as the variant, how does the “effect of a mutation on the interaction” value read?
A: The value was “decreasing interaction strength”.

Q: W179A;N183A;W390A;N394A was tested. Which “effect of a mutation on the interaction” value did it give?
A: Its value is “decreasing interaction strength”.

Variants of: B2
Conditions: with ima3_human KPNA4, O00629

Q: K62A;R63A;K64A was tested. Which “effect of a mutation on the interaction” value did it give?
A: The value was “decreasing interaction strength”.

Q: For K62A;R63A;K64A;K95A;L96A;K97A, which “effect of a mutation on the interaction” value is on record?
A: The value was “disrupting interaction strength”.

Q: Which “effect of a mutation on the interaction” value does the source give for K95A;L96A;K97A here?
A: Its value is “decreasing interaction strength”.

Variants of: B2
Conditions: with imb1_human KPNB1, Q14974
Sequence of imb1_human KPNB1, Q14974 (Q14974 whole entry): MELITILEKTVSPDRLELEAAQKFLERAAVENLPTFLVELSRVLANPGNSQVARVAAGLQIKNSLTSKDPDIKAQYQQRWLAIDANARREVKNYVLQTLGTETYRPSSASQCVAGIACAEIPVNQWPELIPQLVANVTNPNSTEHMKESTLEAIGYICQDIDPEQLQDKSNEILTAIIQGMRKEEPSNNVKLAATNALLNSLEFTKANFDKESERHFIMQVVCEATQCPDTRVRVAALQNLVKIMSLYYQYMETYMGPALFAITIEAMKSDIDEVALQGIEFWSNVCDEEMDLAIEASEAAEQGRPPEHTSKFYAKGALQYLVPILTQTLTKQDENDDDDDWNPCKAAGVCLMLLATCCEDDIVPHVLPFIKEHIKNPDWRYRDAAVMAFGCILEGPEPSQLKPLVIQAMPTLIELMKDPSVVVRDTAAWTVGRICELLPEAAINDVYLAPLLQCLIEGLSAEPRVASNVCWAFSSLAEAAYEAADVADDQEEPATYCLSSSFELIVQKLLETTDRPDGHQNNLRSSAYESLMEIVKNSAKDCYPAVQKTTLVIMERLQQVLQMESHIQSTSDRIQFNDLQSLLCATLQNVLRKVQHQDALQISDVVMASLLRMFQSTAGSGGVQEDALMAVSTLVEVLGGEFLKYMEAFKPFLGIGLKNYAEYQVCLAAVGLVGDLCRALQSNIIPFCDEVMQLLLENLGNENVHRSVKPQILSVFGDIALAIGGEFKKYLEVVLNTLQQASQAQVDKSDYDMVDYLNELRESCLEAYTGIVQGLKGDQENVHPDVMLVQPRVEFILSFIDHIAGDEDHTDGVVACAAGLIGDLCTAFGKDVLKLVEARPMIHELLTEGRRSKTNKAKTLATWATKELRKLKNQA

Q: How did the “effect of a mutation on the interaction” value turn out when K62A;R63A;K64A was run?
A: The value was “decreasing interaction strength”.

Q: For K95A;L96A;K97A, which “effect of a mutation on the interaction” value is on record?
A: Its value is “disrupting interaction strength”.
